Laboratory results taken from publication PMC4420033, “Structure and heme-binding properties of HemQ (chlorite dismutase-like protein) from Listeria monocytogenes” (Archives of Biochemistry and Biophysics, 2015).
Where “and” joins values, the source holds several entries; their conditions need not be identical. Equal entries are not always repeated.

T1: LmCld (chlorite dismutase-like protein, HemQ) (Listeria monocytogenes, UniProt Q8Y5F1)
T1 construct: gene chdC; N-terminal StrepII-tag, TEV-cleavable (cleaved for crystallization); recombinant in E. coli Tuner (DE3); subunit approx. 30 kDa; hexamer approx. 180 kDa in solution, pentamer in crystal
T1 sequence (Q8Y5F1 1-251): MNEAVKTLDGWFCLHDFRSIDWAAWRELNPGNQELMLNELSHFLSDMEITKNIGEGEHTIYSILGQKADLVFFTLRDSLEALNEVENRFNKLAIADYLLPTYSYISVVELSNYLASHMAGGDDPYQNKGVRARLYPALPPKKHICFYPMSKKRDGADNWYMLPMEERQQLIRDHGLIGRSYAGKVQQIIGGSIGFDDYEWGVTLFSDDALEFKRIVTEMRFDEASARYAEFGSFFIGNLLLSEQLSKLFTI

B1: apo-LmCld (heme-free chlorite dismutase-like protein from Listeria monocytogenes) (natural protein, UniProt Q8Y5F1 1-251, looked up)
chain: MNEAVKTLDGWFCLHDFRSIDWAAWRELNPGNQELMLNELSHFLSDMEITKNIGEGEHTIYSILGQKADLVFFTLRDSLEALNEVENRFNKLAIADYLLPTYSYISVVELSNYLASHMAGGDDPYQNKGVRARLYPALPPKKHICFYPMSKKRDGADNWYMLPMEERQQLIRDHGLIGRSYAGKVQQIIGGSIGFDDYEWGVTLFSDDALEFKRIVTEMRFDEASARYAEFGSFFIGNLLLSEQLSKLFTI
notes: Chlorite dismutase-like protein (HemQ) of Listeria monocytogenes; subunit of about 30 kDa; Heme-free form; The template was strain L028, the ORF annotation is of strain EGD-e; The tag is TEV-cleavable; also called HemQ; Cld-like protein
B2: apo-LmCld, StrepII-tag cleaved off (as crystallized) (natural protein, Listeria monocytogenes, UniProt Q8Y5F1 1-251, looked up)
chain: MNEAVKTLDGWFCLHDFRSIDWAAWRELNPGNQELMLNELSHFLSDMEITKNIGEGEHTIYSILGQKADLVFFTLRDSLEALNEVENRFNKLAIADYLLPTYSYISVVELSNYLASHMAGGDDPYQNKGVRARLYPALPPKKHICFYPMSKKRDGADNWYMLPMEERQQLIRDHGLIGRSYAGKVQQIIGGSIGFDDYEWGVTLFSDDALEFKRIVTEMRFDEASARYAEFGSFFIGNLLLSEQLSKLFTI
notes: Chlorite dismutase-like protein (HemQ) of Listeria monocytogenes; Heme-free; homopentamer in the crystal lattice; also called HemQ; LmCld (4WWS); source: E. coli Tuner (DE3), purified (StrepTrap, TEV cleavage, Superdex 200); not shown: StrepII, N-terminal, cleaved
B3: holo-LmCld (heme b-bound chlorite dismutase-like protein from Listeria monocytogenes) (natural protein, UniProt Q8Y5F1 1-251, looked up)
chain: MNEAVKTLDGWFCLHDFRSIDWAAWRELNPGNQELMLNELSHFLSDMEITKNIGEGEHTIYSILGQKADLVFFTLRDSLEALNEVENRFNKLAIADYLLPTYSYISVVELSNYLASHMAGGDDPYQNKGVRARLYPALPPKKHICFYPMSKKRDGADNWYMLPMEERQQLIRDHGLIGRSYAGKVQQIIGGSIGFDDYEWGVTLFSDDALEFKRIVTEMRFDEASARYAEFGSFFIGNLLLSEQLSKLFTI
notes: Chlorite dismutase-like protein (HemQ) of Listeria monocytogenes; subunit of about 30 kDa; heme is partly lost in the high-salt running buffer of the SEC-MALS; also called HemQ; Cld-like protein

Legend:
[1] = biological target: T1, LmCld (chlorite dismutase-like protein, HemQ); assay: electronic circular dichroism titration, Soret minimum […] nm, Hill fit; assay type: binding
[2] = biological target: the molecule itself; assay: SEC-MALS; Superdex 200 10/300 GL, Dulbecco PBS plus 200 mM NaCl, 0.75 mL per min, 50 ug protein injected
[3] = biological target: the molecule itself; assay: crystal structure; apo-LmCld, 0.1 M Tris pH 8.5, 0.6 M potassium sodium tartrate, 8% glycerol; 2.0 A, space group P 1 21 1

Row | Molecule | stoichiometry N [2] | further results
1 | C=CC1=C(C)C2=Cc3c(C=C)c(C)c4[n]3[Fe]([Cl])[n]3c(c(C)c(CCC(=O)O)c3=CC3=NC(=C4)C(C)=C3CCC(=O)O)=CC1=N2 [hemin] | – | Kd [1]: 7.2 ± 0.5 µM
2 | B1 | 6 subunits and 12 subunits | –
3 | B2 | – | stoichiometry N [3]: 5 subunits
4 | B3 | 6 subunits and 12 subunits | –
